From paper doi:10.1101/2020.12.02.408906 (bioRxiv, 2020)

B1: EccD5 of the ESX-5 type VII secretion system of M. tuberculosis H37Rv (natural protein)
chain: MTAVADAPQADIEGVASPQAVVVGVMAGEGVQIGVLLDANAPVSVMTDPLLKVVNSRLRELGEAPLEATGRGRWALCLVDGAPLRATQSLTEQDVYDGDRLWIRFIADTERRSQVIEHISTAVASDLSKRFARIDPIVAVQVGASMVATGVVLATGVLGWWRWHHNTWLTTIYTAVIGVLVLAVAMLLLMRAKTDADRRVADIMLMSAIMPVTVAAAAAPPGPVGSPQAVLGFGVLTVAAALALRFTGRRLGIYTTIVIIGALTMLAALARMVAATSAVTLLSSLLLICVVAYHAAPALSRRLAGIRLPVFPSATSRWVFEARPDLPTTVVVSGGSAPVLEGPSSVRDVLLQAERARSFLSGLLTGLGVMVVVCMTSLCDPHTGQRWLPLILAGFTSGFLLLRGRSYVDRWQSITLAGTAVIIAAAVCVRYALELSSPLAVSIVAAILVLLPAAGMAAAAHVPHTIYSPLFRKFVEWIEYLCLMPIFPLALWLMNVYAAIRYR
B2: EccB5 of the ESX-5 type VII secretion system of M. tuberculosis H37Rv (natural protein)
chain: MAEESRGQRGSGYGLGLSTRTQVTGYQFLARRTAMALTRWRVRMEIEPGRRQTLAVVASVSAALVICLGALLWSFISPSGQLNESPIIADRDSGALYVRVGDRLYPALNLASARLITGRPDNPHLVRSSQIATMPRGPLVGIPGAPSSFSPKSPPASSWLVCDTVATSSSIGSLQGVTVTVIDGTPDLTGHRQILSGSDAVVLRYGGDAWVIREGRRSRIEPTNRAVLLPLGLTPEQVSQARPMSRALFDALPVGPELLVPEVPNAGGPATFPGAPGPIGTVIVTPQISGPQQYSLVLGDGVQTLPPLVAQILQNAGSAGNTKPLTVEPSTLAKMPVVNRLDLSAYPDNPLEVVDIREHPSTCWWWERTAGENRARVRVVSGPTIPVAATEMNKVVSLVKADTSGRQADQVYFGPDHANFVAVTGNNPGAQTSESLWWVTDAGARFGVEDSKEARDALGLTLTPSLAPWVALRLLPQGPTLSRADALVEHDTLPMDMTPAELVVPK
B3: MycP5 protease (mycosin) of the ESX-5 type VII secretion system of M. tuberculosis H37Rv (enzyme)
chain: ISPPTIDPGALPPDGPPGPLAPMKQNAYCTEVGVLPGTDFQLQPKYMEMLNLNEAWQFGRGDGVKVAVIDTGVTPHPRLPRLIPGGDYVMAGGDGLSDCDAHGTLVASMIAAVPANGAVPLPSVPRRPVTIPTTETPPPPQTVTLSPVPPQTVTVIPAPPPEEGVPPGAPVPGPEPPPAPGPQPPAVDRGGGTVTVPSYSGGRKIAPIDNPRNPHPSAPSPALGPPPDAFSGIAPGVEIISIRQSSQAFGLKDPYTGDEDPQTAQKIDNVETMARAIVHAANMGASVINISDVMCMSARNVIDQRALGAAVHYAAVDKDAVIVAAAGDGSKKDCKQNPIFDPLQPDDPRAWNAVTTVVTPSWFHDYVLTVGAVDANGQPLSKMSIAGPWVSISAPGTDVVGLSPRDDGLINAIDGPDNSLLVPAGTSFSAAIVSGVAALVRAKFPELSAYQIINRLIHTARPPARGVDNQVGYGVVDPVAALTWDVPKGPAEPPKQLSAPLVVPQPPAPRDMVPIWVAAGGLAGALLIGGAVFGTATLMRRSRKQQ
B4: EccC5 ATPase of the ESX-5 type VII secretion system of M. tuberculosis H37Rv (natural protein)
chain: MKRGFARPTPEKPPVIKPENIVLSTPLSIPPPEGKPWWLIVVGVVVVGLLGGMVAMVFASGSHVFGGIGSIFPLFMMVGIMMMMFRGMGGGQQQMSRPKLDAMRAQFMLMLDMLRETAQESADSMDANYRWFHPAPNTLAAAVGSPRMWERKPDGKDLNFGVVRVGVGMTRPEVTWGEPQNMPTDIELEPVTGKALQEFGRYQSVVYNLPKMVSLLVEPWYALVGEREQVLGLMRAIICQLAFSHGPDHVQMIVVSSDLDQWDWVKWLPHFGDSRRHDAAGNARMVYTSVREFAAEQAELFAGRGSFTPRHASSSAQTPTPHTVIIADVDDPQWEYVISAEGVDGVTFFDLTGSSMWTDIPERKLQFDKTGVIEALPRDRDTWMVIDDKAWFFALTDQVSIAEAEEFAQKLAQWRLAEAYEEIGQRVAHIGARDILSYYGIDDPGNIDFDSLWASRTDTMGRSRLRAPFGNRSDNGELLFLDMKSLDEGGDGPHGVMSGTTGSGKSTLVRTVIESLMLSHPPEELQFVLADLKGGSAVKPFAGVPHVSRIITDLEEDQALMERFLDALWGEIARRKAICDSAGVDDAKEYNSVRARMRARGQDMAPLPMLVVVIDEFYEWFRIMPTAVDVLDSIGRQGRAYWIHLMMASQTIESRAEKLMENMGYRLVLKARTAGAAQAAGVPNAVNLPAQAGLGYFRKSLEDIIRFQAEFLWRDYFQPGVSIDGEEAPALVHSIDYIRPQLFTNSFTPLEVSVGGPDIEPVVAQPNGEVLESDDIEGGEDEDEEGVRTPKVGTVIIDQLRKIKFEPYRLWQPPLTQPVAIDDLVNRFLGRPWHKEYGSACNLVFPIGIIDRPYKHDQPPWTVDTSGPGANVLILGAGGSGKTTALQTLICSAALTHTPQQVQFYCLAYSSTALTTVSRIPHVGEVAGPTDPYGVRRTVAELLALVRERKRSFLECGIASMEMFRRRKFGGEAGPVPDDGFGDVYLVIDNYRALAEENEVLIEQVNVIINQGPSFGVHVVVTADRESELRPPVRSGFGSRIELRLAAVEDAKLVRSRFAKDVPVKPGRGMVAVNYVRLDSDPQAGLHTLVARPALGSTPDNVFECDSVVAAVSRLTSAQAPPVRRLPARFGVEQVRELASRDTRQGVGAGGIAWAISELDLAPVYLNFAENSHLMVTGRRECGRTTTLATIMSEIGRLYAPGASSAPPPAPGRPSAQVWLVDPRRQLLTALGSDYVERFAYNLDGVVAMMGELAAALAGREPPPGLSAEELLSRSWWSGPEIFLIVDDIQQLPPGFDSPLHKAVPFVNRAADVGLHVIVTRTFGGWSSAGSDPMLRALHQANAPLLVMDADPDEGFIRGKMKGGPLPRGRGLLMAEDTGVFVQVAATEVRR

Biological target: the molecule itself
Assay: cryo-EM structure

| Protein | stoichiometry N |
| --- | --- |
| B1 | 2 |
| B2 | 6 |
| B3 | 3 |
| B4 | 2 |
